Results from the Human Domainome abundance scans (Beltran et al. 2025).

B1: Cyclin-F, residues 28 to 80; numbered along this chain, P41002 (parent)
chain: RNLTILSLPEDVLFHILKWLSVEDILAVRAVHSQLKDLVDNHASVWACASFQE
B2: Max-interacting protein 1, residues 70 to 120; numbered along this chain, P50539 (parent)
chain: STHNELEKNRRAHLRLCLERLKVLIPLGPDCTRHTTLGLLNKAKAHIKKLE

Variants of: B1
Experiment: abundance fitness (aPCA) (normalised: wild type 0, dead -1); higher = more abundant; growth selection in yeast, the domain comes from the species named
Conditions: Homo sapiens

Abundance fitness: each site, then its substitutions
S44: G 0.05
A47: S -0.114, Y -0.458, C -0.218, D -0.062, N -0.088, H -0.29, E -0.365, V -0.513, R -0.14, K -0.181, L -0.235, M -0.095, W -0.374, G 0.193, I -0.178, T -0.43, F 0.386
N41: E -0.039, M -0.272, G -0.033, H -0.035, Q 0.128, R 0.241, T -0.131, L -0.306, S 0.052, A -0.071, W -0.733, D -0.435, F -0.692, V -0.484, Y -0.569, P -0.59, I -0.455, K 0.231
A43: T -0.416, N -0.303, I -0.577, P -0.039, W -0.264, C -0.006, E -0.343, R -0.273, G -0.409, V -0.616, L -0.605

Variants of: B2
Experiment: as above
Conditions: Homo sapiens

Abundance fitness, by site and new letter:
K8: D -0.568, E -0.291, C -0.278, A -0.386
H3: A -0.099, E -0.047, M 0.152, F 0.168, Y -0.078, N -0.162, V -0.053, D 0.023, K 0.178, W -0.549, C 0.021, P 0.018, S 0.065, G 0.197, Q -0.023
E5: D -0.021, N 0.282, I -0.185, S -0.205, C -0.991, Y -0.069, Q -0.193, K -0.232, T -0.006, W -0.435, R -0.27, P -0.15, G -0.244, F -0.514, M 0.119
N4: T 0.135, G -0.223, A -0.258, H -0.381, V -0.404, R -0.255, P -0.276, I 0.278, L -0.48, C -0.33, M -0.289, F -0.713, K -0.168, E -0.142, Y -0.547, Q 0.041, D -0.134
S1: Y -0.444, D -0.475, E -0.48, H -0.285, G -0.21, L -0.59, R -0.573, W -0.916, A -0.6, C -0.216, F -0.095, N -0.158, M -0.797, T -0.577
E7: C -0.267, V -0.185, T -0.468, R -0.161, L -0.109, Y -0.205, N 0.176, D -0.184, W -0.004, Q -0.169, I -0.479, F -0.273, G -0.099, M -0.173, K 0.061, H -0.3, A -0.263, S 0.06
L6: V -0.005, D -0.066, P 0.36, S 0.096, K -0.086, C -0.123, Y -0.277, A -0.171, E -0.574, Q 0.18, R 0.172, H 0.519, M -0.247, N -0.329, T -0.025, I -0.189, F -0.228, W -0.566, G 0.203
T2: A -0.303, I -0.24, K 0.002, P -0.35, F -0.586, C -0.415, H -0.1, W -0.836, D -0.209, N 0.128, M -0.63, Y -0.088, V -0.663, L -0.519, Q 0.161, G -0.69, S -0.414, R -0.631
